From patent US20120244144A1 (University of Texas, published 2012)

Tests used:
PTx-S1-220 Y8A = target: T1, PTx-S1-220 Y8A (Bordetella pertussis strain Tohama I, UniProt P04977 36-255, Y8A); assay: Western blot (text: 1B7 was unable to bind Y8A)
T1 sequence: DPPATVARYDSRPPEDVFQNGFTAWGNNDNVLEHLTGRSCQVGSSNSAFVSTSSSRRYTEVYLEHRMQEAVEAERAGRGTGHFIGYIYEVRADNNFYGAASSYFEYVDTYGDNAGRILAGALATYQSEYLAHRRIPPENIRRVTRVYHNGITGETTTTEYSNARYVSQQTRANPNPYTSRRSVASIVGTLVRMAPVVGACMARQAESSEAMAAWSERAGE

[1] = target: pertussis toxin holotoxin (Bordetella pertussis), P04977; assay: competition ELISA (Friguet), 5 nM antibody, soluble PT; details: remark: other sources report otherwise
[2] = target: T2, PTx-S1-220, truncated recombinant S1 subunit (residues 1-220) (Bordetella pertussis strain Tohama I), P04977; assay: SPR; value for truncated PTx-S1-220 differs from Table 1; details: remark: other sources report otherwise
[3] = target: T2, PTx-S1-220, truncated recombinant S1 …; assay: SPR, mAb 1B7 immobilised ~1000 RU; details: remark: other sources report otherwise
PTx-S1D (1-220) = target: T3, PTx-S1D (1-220) (Bordetella pertussis, UniProt P04977 35-254); assay: SPR BIAcore 3000, mAb 1B7 immobilised ~1000 RU
T3 chain: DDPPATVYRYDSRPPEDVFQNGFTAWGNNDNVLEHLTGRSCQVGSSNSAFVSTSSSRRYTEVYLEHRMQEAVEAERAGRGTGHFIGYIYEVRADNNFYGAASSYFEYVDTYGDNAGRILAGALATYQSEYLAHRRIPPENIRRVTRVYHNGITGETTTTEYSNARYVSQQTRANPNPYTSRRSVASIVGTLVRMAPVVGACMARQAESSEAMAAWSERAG

PTx-S1 9K/129G (1-220) = target: T4, PTx-S1 9K/129G (1-220) (Bordetella pertussis, UniProt P04977 36-255, R9K; E129G); assay: SPR BIAcore 3000, mAb 1B7 immobilised ~1000 RU
T4 construct: also called R9K, E129G variant
T4 sequence: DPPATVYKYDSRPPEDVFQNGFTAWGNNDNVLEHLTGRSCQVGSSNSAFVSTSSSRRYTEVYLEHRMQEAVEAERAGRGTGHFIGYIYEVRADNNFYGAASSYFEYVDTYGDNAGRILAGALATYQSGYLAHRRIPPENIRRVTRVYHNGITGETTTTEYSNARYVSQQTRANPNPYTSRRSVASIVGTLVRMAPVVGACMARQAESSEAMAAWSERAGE

PTx-S1A (1-220) = target: T5, PTx-S1A (1-220) (Bordetella pertussis, UniProt P04977 36-255, M194I); assay: SPR BIAcore 3000, mAb 1B7 immobilised ~1000 RU
T5 sequence: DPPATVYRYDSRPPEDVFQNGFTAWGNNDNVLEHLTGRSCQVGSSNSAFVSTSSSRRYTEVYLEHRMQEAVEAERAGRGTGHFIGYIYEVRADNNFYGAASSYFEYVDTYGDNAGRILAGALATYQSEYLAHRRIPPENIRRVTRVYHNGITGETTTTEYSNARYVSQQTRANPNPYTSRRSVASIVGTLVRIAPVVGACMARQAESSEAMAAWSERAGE

PTx-S1-220 T81A = target: T6, PTx-S1-220 T81A (Bordetella pertussis strain Tohama I, UniProt P04977 36-255, T81A); assay: SPR, mAb 1B7 immobilised ~1000 RU
T6 sequence: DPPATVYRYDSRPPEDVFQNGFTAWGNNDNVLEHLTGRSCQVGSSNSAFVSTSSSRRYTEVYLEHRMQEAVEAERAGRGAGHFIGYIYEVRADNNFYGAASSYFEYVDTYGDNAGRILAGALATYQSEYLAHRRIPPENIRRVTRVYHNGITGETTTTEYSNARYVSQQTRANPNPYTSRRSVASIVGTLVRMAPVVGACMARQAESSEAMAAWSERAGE

B1: monoclonal antibody 1B7 (antibody)
chain: DIQMTQSPALMSASPGEKVTMTCSASSSVSFMYWYQQKPRSSPKPWIYLTSNLPSGVPARFSGSGSGTSYSLTISSMEAEDAATYYCQQWSSHPPTFGSGTKLEIKRGGGGSGGGGSGGGGSGGGGSEVQLQQSGSELVRPGASVKLSCKASGYKFTSYWMHWVKQRPGQGLEWIGNIFPGSGSTNYDEKFNSKATLTVDTSSNTAYMQLSSLTSEDSAVYYCTRWLSGAYFDYWGQGTTLTVSSASGA
notes: also called mAb 1B7; 1B7 mAb
Does B1 bind (PTx-S1-220 Y8A)?
Result: no binding

What about the Kd [1] of the same binder?
Its Kd is 1.1 nM.

What about the koff [2] of the same binder?
The koff was 0.0014 s⁻¹.

And the koff [3]?
The koff was 0.0014 s⁻¹.

And the koff (PTx-S1D (1-220))?
The koff was 0.00095 s⁻¹.

What about the koff (PTx-S1 9K/129G (1-220)) of the same binder?
The koff was 0.0016 s⁻¹.

What about the koff (PTx-S1A (1-220)) of the same binder?
Its koff is 0.00071 s⁻¹.

And the koff (PTx-S1-220 T81A)?
The koff was 0.0017 s⁻¹.
